The chains are these.
T1: Extracellular domain (ECD) of the canine IL-4 receptor alpha-V5 epitope-AviTag-His Tag (canine)
T1 construct: monomeric form isolated by size exclusion; also called canine IL-4RA-V5-Avi-His; canine IL-4RA
T1 chain: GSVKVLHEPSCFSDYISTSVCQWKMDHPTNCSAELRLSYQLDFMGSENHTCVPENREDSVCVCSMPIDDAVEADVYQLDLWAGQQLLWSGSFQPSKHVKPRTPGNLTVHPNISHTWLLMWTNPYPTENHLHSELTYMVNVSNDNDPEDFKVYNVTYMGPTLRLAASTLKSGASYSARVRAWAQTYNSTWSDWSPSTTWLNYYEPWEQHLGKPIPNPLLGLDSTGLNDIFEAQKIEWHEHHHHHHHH

B1: TB640_005 Fab-SASA VH-K103I (Fab, V domains shown)
VH: EVQLVESGGDLVKPGGSLRLSCVASGFTFRDYAMTWVRQAPGKGLQWVSLISGSGGKTYYADAVKGRFTISRDNAKNTLYLQMNSLRAEDTAVYYCAVDRLTITIRPQYYGLWVWGQGTLVTVSS
VL: DIVMTQTPLSLSVSPGETASISCRSSQSLLYSIGYNYLDWYLQKPGQSPQGLIYLGSKRASGVPDRFSGSGSGTDFTLRISRVEANDTGVYYCMQGLQSPLTFGQGTKLEIKR
notes: not shown: SASA tag then His-tag
B2: TB640_005 Fab-SASA VH-K103R (Fab, V domains shown)
VH: B1 VH with I103R
VL: B1 VL
notes: as for B1
B3: TB640_005 Fab-SASA VH-Y110R (Fab, V domains shown)
VH: B1 VH with I103K, Y110R
VL: B1 VL
notes: as for B1
B4: TB640_005 Fab-SASA VL-I33P (Fab, V domains shown)
VH: B1 VH with I103K
VL: B1 VL with I33P
notes: as for B1
B5: TB640_005 Fab-SASA VH-T28P (Fab, V domains shown)
VH: B1 VH with T28P, I103K
VL: B1 VL
notes: as for B1
B6: TB640_005 Fab-SASA VL-A60M (Fab, V domains shown)
VH: B1 VH with I103K
VL: B1 VL with A60M
notes: as for B1
B7: TB640_005 Fab-SASA VH-V114G (Fab, V domains shown)
VH: B1 VH with I103K, V114G
VL: B1 VL
notes: as for B1
B8: TB640_005 Fab-SASA VH-L112M (Fab, V domains shown)
VH: B1 VH with I103K, L112M
VL: B1 VL
notes: as for B1
B9: TB640_005 Fab-SASA VH-S52N (Fab, V domains shown)
VH: B1 VH with S52N, I103K
VL: B1 VL
notes: as for B1
B10: TB640_005 Fab-SASA VH-L50F (Fab, V domains shown)
VH: B1 VH with L50F, I103K
VL: B1 VL
notes: as for B1
B11: TB640_005 Fab-SASA VH-L101M (Fab, V domains shown)
VH: B1 VH with L101M, I103K
VL: B1 VL
notes: as for B1
B12: TB640_005 Fab-SASA VL-A60L (Fab, V domains shown)
VH: B1 VH with I103K
VL: B1 VL with A60L
notes: as for B1
B13: TB640_005 Fab-SASA VL-I33A (Fab, V domains shown)
VH: B1 VH with I103K
VL: B1 VL with I33A
notes: as for B1
B14: TB640_005 Fab-SASA VH-Y110L (Fab, V domains shown)
VH: B1 VH with I103K, Y110L
VL: B1 VL
notes: as for B1
B15: TB640_005 Fab-SASA VH-T28N (Fab, V domains shown)
VH: B1 VH with T28N, I103K
VL: B1 VL
notes: as for B1
B16: TB640_005 Fab-SASA VH-L101K (Fab, V domains shown)
VH: B1 VH with L101K, I103K
VL: B1 VL
notes: as for B1
B17: TB640_005 Fab-SASA VL-G96P (Fab, V domains shown)
VH: B1 VH with I103K
VL: B1 VL with G96P
notes: as for B1
B18: TB640_005 Fab-SASA VH-V114H (Fab, V domains shown)
VH: B1 VH with I103K, V114H
VL: B1 VL
notes: as for B1
B19: TB640_005 Fab-SASA VH-V114Q (Fab, V domains shown)
VH: B1 VH with I103K, V114Q
VL: B1 VL
notes: as for B1
B20: TB640_005 Fab-SASA VH-L50M (Fab, V domains shown)
VH: B1 VH with L50M, I103K
VL: B1 VL
notes: as for B1
B21: TB640_005 Fab-SASA VH-V114K (Fab, V domains shown)
VH: B1 VH with I103K, V114K
VL: B1 VL
notes: as for B1

The source of these data is US20250188176A1 (INVETX, published 2025).

Residue numbers refer to the chain shown, from its start.

The term Kd denotes the concentration at which binding is half-saturated. What is called koff is a measure of how fast the partners let go of each other. As a reminder, the kon is the rate constant with which the complex forms. Low readings indicate slower complex formation, high ones faster complex formation.

This assay deals with T1, Extracellular domain (ECD) of the …. Nature of the assay: SPR, Fab-SASA captured on BSA.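 Note: biacore T200 SPR, Fab-SASA variants from E. coli conditioned medium captured on BSA-coated CM5 chip, canine IL-4RA injected 120 s then 420 s dissociation, 1:1 model fit.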
Method: Forty-four PML clones were selected from each library for expression in E. coli in 96 deep-well plates by inoculating into 2YT medium and inducing with 0.2 mM IPTG overnight at room temperature. The Fab secreted in the medium was analyzed for binding activity by completing an ELISA. […] The 39 unique clones were confirmed by an off-rate screening assay in an SPR assay performed on a Biacore T200. For the SPR analyses, bovine serum albumin (BSA) was immobilized to CM5 sensor chip. The sensor chip surface was activated with 50 mmol/L H-Hydroxysuccinimide and 200 mmol/L 1-ethyl-3-(3-dimethylaminopropyl) carbodiimide hydrochloride for 420 s. Afterwards, BSA diluted in 10 mM sodium acetate, pH 4.5 was injected. After the amine coupling reaction, the remaining active coupling sites on the chip surface were blocked with 1 mM ethanolamine hydrochloride. The selected Fab-SASA variants in conditioned medium were captured on the BSA-coated chips. The running buffer was HBS-EP (10 mM HEPES 500 mM NaCl, 3 mM EDTA, 0.05% Tween 20, pH 7.4). After equilibration, canine IL-4RA was injected for 120 seconds (association phase) followed by the injection of running buffer for 420 sec (dissociation phase). The off-rates of the Fab-SASA clones were obtained from fitting the experimental data locally to a 1:1 interaction model using the Biacore T200 evaluation software.
As to B1, the Kd was 18.6 nM, the “Ratio WT-kd/clone-kd” value was found to be 0.99, the koff amounted to 0.000967 s⁻¹ and the kon was 51900 M⁻¹ s⁻¹.

Consider B2, for which binding was put at a Kd of 7.13 nM, the “Ratio WT-kd/clone-kd” value was 1.5, the koff amounted to 0.000636 s⁻¹ and the on-rate constant (kon) turned out to be 89200 M⁻¹ s⁻¹.

For B3, binding was put at a Kd of 9.6 nM, the “Ratio WT-kd/clone-kd” value was found to be 0.62, the koff came to 0.00153 s⁻¹ and the kon came to 159000 M⁻¹ s⁻¹.

As for B4, the affinity, expressed as Kd, was 12.5 nM; the “Ratio WT-kd/clone-kd” value came out at 0.7; the koff turned out to be 0.00137 s⁻¹; the kon was 109000 M⁻¹ s⁻¹.

With B5, the Kd was 8.95 nM, the “Ratio WT-kd/clone-kd” value was 1.21, the koff was determined as 0.000786 s⁻¹ and the kon was determined as 87800 M⁻¹ s⁻¹.

On to B6, for which the Kd was 4.52 nM, the “Ratio WT-kd/clone-kd” value was 1.12, the koff came out at 0.00085 s⁻¹ and the kon is 188000 M⁻¹ s⁻¹.

Consider B7, for which the Kd worked out at 3.5 nM, the “Ratio WT-kd/clone-kd” value amounted to 1.47, the koff was determined as 0.000647 s⁻¹ and the kon amounted to 185000 M⁻¹ s⁻¹.

For B8, the Kd turned out to be 13.7 nM, the “Ratio WT-kd/clone-kd” value was found to be 1.97, the koff is 0.000483 s⁻¹ and the kon was 35300 M⁻¹ s⁻¹.

Consider B9, for which the Kd is 1.83 nM, the “Ratio WT-kd/clone-kd” value came out at 7.88, the koff is 0.000112 s⁻¹ and the kon came out at 66200 M⁻¹ s⁻¹.

On to B10, for which binding was characterised by a dissociation constant (Kd) of 15 nM, the “Ratio WT-kd/clone-kd” value was 0.49, the koff came out at 0.00193 s⁻¹ and the kon is 128000 M⁻¹ s⁻¹.

B11: binding was put at a Kd of 7.73 nM, the “Ratio WT-kd/clone-kd” value worked out at 1.34, the koff came to 0.000713 s⁻¹ and the kon stood at 92300 M⁻¹ s⁻¹.

Take B12: the Kd came out at 5.41 nM, the “Ratio WT-kd/clone-kd” value came out at 0.98, the koff amounted to 0.000974 s⁻¹ and the kon came to 180000 M⁻¹ s⁻¹.

Turning to B13, the Kd stood at 20.1 nM, the “Ratio WT-kd/clone-kd” value turned out to be 0.62, the koff was determined as 0.00153 s⁻¹ and the kon amounted to 75900 M⁻¹ s⁻¹.

With B14, binding was characterised by a dissociation constant (Kd) of 6.65 nM, the “Ratio WT-kd/clone-kd” value came to 0.71, the koff amounted to 0.00135 s⁻¹ and the kon was found to be 202000 M⁻¹ s⁻¹.

For B15, binding was put at a Kd of 11.3 nM, the “Ratio WT-kd/clone-kd” value is 1.22, the koff was found to be 0.00078 s⁻¹ and the kon was 69200 M⁻¹ s⁻¹.

B16: the Kd was determined as 7.1 nM, the “Ratio WT-kd/clone-kd” value turned out to be 1.53, the koff stood at 0.000623 s⁻¹ and the kon stood at 87800 M⁻¹ s⁻¹.

As to B17, binding was put at a Kd of 3.27 nM, the “Ratio WT-kd/clone-kd” value came to 2.66, the koff is 0.000358 s⁻¹ and the on-rate (kon) is 109000 M⁻¹ s⁻¹.

Regarding B18, the Kd amounted to 5.47 nM, the “Ratio WT-kd/clone-kd” value amounted to 1.62, the koff is 0.000589 s⁻¹ and the kon worked out at 108000 M⁻¹ s⁻¹.

As for B19, the Kd is 7.16 nM, the “Ratio WT-kd/clone-kd” value came to 1.41, the koff was found to be 0.000674 s⁻¹ and the kon amounted to 94100 M⁻¹ s⁻¹.

Take B20: the Kd turned out to be 8.5 nM, the “Ratio WT-kd/clone-kd” value is 0.79, the koff is 0.0012 s⁻¹ and the kon was 141000 M⁻¹ s⁻¹.

As to B21, the affinity, expressed as Kd, was 5.97 nM; the “Ratio WT-kd/clone-kd” value is 1.33; the off-rate constant (koff) is 0.000717 s⁻¹; the kon is 120000 M⁻¹ s⁻¹.
